Measurements: patent US20180273587A1 (AILERON THERAPEUTICS, published 2018)
Positions of bridges follow the written chain, without caps; N, C: chain ends. Non-standard residues stand in square brackets, D forms with d. Phe(4-CF3) = N[C@@H](Cc1ccc(C(F)(F)F)cc1)C(=O)O; Phe(4-tBu) = CC(C)(C)c1ccc(C[C@H](N)C(=O)O)cc1; 2Nal = N[C@@H](Cc1ccc2ccccc2c1)C(=O)O; Igl = N[C@H](C(=O)O)C1Cc2ccccc2C1; R8 = C=CCCCCCC[C@@](C)(N)C(=O)O; S5 = C=CCCC[C@](C)(N)C(=O)O

Legend:
Assay in all cases: Ki table, method not stated
BCL-XL = BCL-XL (UniProt Q07817 1-209)
Chain of BCL-XL (Q07817 1-209): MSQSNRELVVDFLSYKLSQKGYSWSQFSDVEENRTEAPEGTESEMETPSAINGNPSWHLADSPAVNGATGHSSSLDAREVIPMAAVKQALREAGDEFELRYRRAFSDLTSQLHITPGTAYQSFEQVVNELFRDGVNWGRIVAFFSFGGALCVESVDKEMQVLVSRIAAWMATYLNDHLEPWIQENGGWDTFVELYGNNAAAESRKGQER

MCL-1 = target: T1, MCL-1 (UniProt Q07820 172-327, limits assumed)
T1 construct: also called Myeloid cell leukemia 1
T1 sequence (Q07820 172-327 limits assumed): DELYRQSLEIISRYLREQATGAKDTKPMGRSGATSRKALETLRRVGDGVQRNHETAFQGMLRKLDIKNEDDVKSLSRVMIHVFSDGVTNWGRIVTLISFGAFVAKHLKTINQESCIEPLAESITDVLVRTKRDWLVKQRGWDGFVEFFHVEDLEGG

BCL-2 = BCL-2 (UniProt P10415 1-217, limits assumed)
Chain of BCL-2 (P10415 1-217 limits assumed): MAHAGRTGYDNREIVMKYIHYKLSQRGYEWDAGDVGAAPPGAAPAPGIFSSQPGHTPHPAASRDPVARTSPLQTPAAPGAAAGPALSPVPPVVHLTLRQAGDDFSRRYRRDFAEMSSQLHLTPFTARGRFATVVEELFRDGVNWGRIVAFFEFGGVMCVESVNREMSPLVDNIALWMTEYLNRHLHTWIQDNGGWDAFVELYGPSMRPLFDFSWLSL

Binder | Ki (BCL-XL) [nM] | Ki (MCL-1) [nM] | Ki (BCL-2) [nM]
Ac-IW[Igl]AQALR[R8]IGDAFN[S5]YYA-NH2 (staple 9-16; SMILES CC[C@H](C)[C@H](NC(C)=O)C(=O)N[C@@H](Cc1c[nH]c2ccccc12)C(=O)N[C@H](C(=O)N[C@@H](C)C(=O)N[C@@H](CCC(N)=O)C(=O)N[C@@H](C)C(=O)N[C@@H](CC(C)C)C(=O)N[C@@H](CCCNC(=N)N)C(=O)N[C@]1(C)CCCCCCC=CCCC[C@@](C)(C(=O)N[C@@H](Cc2ccc(O)cc2)C(=O)N[C@@H](Cc2ccc(O)cc2)C(=O)N[C@@H](C)C(N)=O)NC(=O)[C@H](CC(N)=O)NC(=O)[C@H](Cc2ccccc2)NC(=O)[C@H](C)NC(=O)[C@H](CC(=O)O)NC(=O)CNC(=O)[C@H]([C@@H](C)CC)NC1=O)C1Cc2ccccc2C1, also called Ac-IWIglAQALR$r8IGDAFN$YYA-NH2) [SEQ ID NO: 1682] | 146 | 12.8 | 246
Ac-IWIAQA[Phe(4-tBu)]R[R8]IGDAFN[S5]YYA-NH2 (staple 9-16; SMILES CC[C@H](C)[C@H](NC(C)=O)C(=O)N[C@@H](Cc1c[nH]c2ccccc12)C(=O)N[C@H](C(=O)N[C@@H](C)C(=O)N[C@@H](CCC(N)=O)C(=O)N[C@@H](C)C(=O)N[C@@H](Cc1ccc(C(C)(C)C)cc1)C(=O)N[C@@H](CCCNC(=N)N)C(=O)N[C@]1(C)CCCCCCC=CCCC[C@@](C)(C(=O)N[C@@H](Cc2ccc(O)cc2)C(=O)N[C@@H](Cc2ccc(O)cc2)C(=O)N[C@@H](C)C(N)=O)NC(=O)[C@H](CC(N)=O)NC(=O)[C@H](Cc2ccccc2)NC(=O)[C@H](C)NC(=O)[C@H](CC(=O)O)NC(=O)CNC(=O)[C@H]([C@@H](C)CC)NC1=O)[C@@H](C)CC, also called Ac-IWIAQAF4tBuR$r8IGDAFN$YYA-NH2) [SEQ ID NO: 1695] | 12.7 | 169 | 288
Ac-IW[Phe(4-CF3)]AQALR[R8]IGDAFN[S5]YYA-NH2 (staple 9-16; SMILES CC[C@H](C)[C@H](NC(C)=O)C(=O)N[C@@H](Cc1c[nH]c2ccccc12)C(=O)N[C@@H](Cc1ccc(C(F)(F)F)cc1)C(=O)N[C@@H](C)C(=O)N[C@@H](CCC(N)=O)C(=O)N[C@@H](C)C(=O)N[C@@H](CC(C)C)C(=O)N[C@@H](CCCNC(=N)N)C(=O)N[C@]1(C)CCCCCCC=CCCC[C@@](C)(C(=O)N[C@@H](Cc2ccc(O)cc2)C(=O)N[C@@H](Cc2ccc(O)cc2)C(=O)N[C@@H](C)C(N)=O)NC(=O)[C@H](CC(N)=O)NC(=O)[C@H](Cc2ccccc2)NC(=O)[C@H](C)NC(=O)[C@H](CC(=O)O)NC(=O)CNC(=O)[C@H]([C@@H](C)CC)NC1=O, also called Ac-IWF4CF3AQALR$r8IGDAFN$YYA-NH2) [SEQ ID NO: 1683] | 9.1 | 76.7 | 237
Ac-IW[2Nal]AQALR[R8]IGDAFN[S5]YYA-NH2 (staple 9-16; SMILES CC[C@H](C)[C@H](NC(C)=O)C(=O)N[C@@H](Cc1c[nH]c2ccccc12)C(=O)N[C@@H](Cc1ccc2ccccc2c1)C(=O)N[C@@H](C)C(=O)N[C@@H](CCC(N)=O)C(=O)N[C@@H](C)C(=O)N[C@@H](CC(C)C)C(=O)N[C@@H](CCCNC(=N)N)C(=O)N[C@]1(C)CCCCCCC=CCCC[C@@](C)(C(=O)N[C@@H](Cc2ccc(O)cc2)C(=O)N[C@@H](Cc2ccc(O)cc2)C(=O)N[C@@H](C)C(N)=O)NC(=O)[C@H](CC(N)=O)NC(=O)[C@H](Cc2ccccc2)NC(=O)[C@H](C)NC(=O)[C@H](CC(=O)O)NC(=O)CNC(=O)[C@H]([C@@H](C)CC)NC1=O, also called Ac-IW2NalAQALR$r8IGDAFN$YYA-NH2) [SEQ ID NO: 1685] | 151 | 163 | 265
